Tests used:
Experiment in all cases: cleavage_in_vitro
[1] = system: T1, OMNI-137 (metagenomic, unknown); details: TXTL; PAM NNRCRGNN
T1 sequence: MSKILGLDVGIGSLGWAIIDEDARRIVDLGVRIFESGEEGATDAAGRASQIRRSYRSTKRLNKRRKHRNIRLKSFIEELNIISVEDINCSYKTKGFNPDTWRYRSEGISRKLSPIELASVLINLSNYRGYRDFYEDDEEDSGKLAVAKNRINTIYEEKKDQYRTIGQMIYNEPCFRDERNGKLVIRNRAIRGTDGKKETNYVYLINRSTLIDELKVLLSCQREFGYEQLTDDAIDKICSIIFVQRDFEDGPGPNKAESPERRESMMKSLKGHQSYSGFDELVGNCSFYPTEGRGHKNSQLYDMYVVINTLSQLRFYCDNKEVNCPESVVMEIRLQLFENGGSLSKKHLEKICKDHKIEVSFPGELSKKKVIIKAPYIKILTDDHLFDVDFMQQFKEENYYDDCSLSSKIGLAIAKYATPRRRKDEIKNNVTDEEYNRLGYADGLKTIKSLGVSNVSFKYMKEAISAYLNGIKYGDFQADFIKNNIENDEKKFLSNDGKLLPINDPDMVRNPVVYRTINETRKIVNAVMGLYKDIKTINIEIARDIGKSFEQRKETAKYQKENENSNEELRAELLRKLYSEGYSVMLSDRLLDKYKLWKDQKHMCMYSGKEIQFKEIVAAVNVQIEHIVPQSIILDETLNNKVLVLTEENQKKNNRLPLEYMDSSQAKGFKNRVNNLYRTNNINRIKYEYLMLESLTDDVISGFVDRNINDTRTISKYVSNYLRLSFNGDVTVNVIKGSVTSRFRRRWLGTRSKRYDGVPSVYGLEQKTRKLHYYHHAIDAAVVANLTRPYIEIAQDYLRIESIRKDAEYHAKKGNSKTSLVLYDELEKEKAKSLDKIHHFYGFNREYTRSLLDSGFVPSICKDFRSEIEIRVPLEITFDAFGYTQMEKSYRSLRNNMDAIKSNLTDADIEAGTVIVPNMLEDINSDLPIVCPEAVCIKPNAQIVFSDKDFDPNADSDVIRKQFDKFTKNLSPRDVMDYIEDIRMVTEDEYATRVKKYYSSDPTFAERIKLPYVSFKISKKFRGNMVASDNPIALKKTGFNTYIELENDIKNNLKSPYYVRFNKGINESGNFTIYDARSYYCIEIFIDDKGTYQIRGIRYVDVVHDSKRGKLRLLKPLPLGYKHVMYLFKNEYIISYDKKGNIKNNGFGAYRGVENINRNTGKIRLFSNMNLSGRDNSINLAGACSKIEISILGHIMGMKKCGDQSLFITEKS

[2] = system: T2, OMNI-95 (metagenomic, unknown); details: TXTL; PAM NNGYAANN
T2 sequence: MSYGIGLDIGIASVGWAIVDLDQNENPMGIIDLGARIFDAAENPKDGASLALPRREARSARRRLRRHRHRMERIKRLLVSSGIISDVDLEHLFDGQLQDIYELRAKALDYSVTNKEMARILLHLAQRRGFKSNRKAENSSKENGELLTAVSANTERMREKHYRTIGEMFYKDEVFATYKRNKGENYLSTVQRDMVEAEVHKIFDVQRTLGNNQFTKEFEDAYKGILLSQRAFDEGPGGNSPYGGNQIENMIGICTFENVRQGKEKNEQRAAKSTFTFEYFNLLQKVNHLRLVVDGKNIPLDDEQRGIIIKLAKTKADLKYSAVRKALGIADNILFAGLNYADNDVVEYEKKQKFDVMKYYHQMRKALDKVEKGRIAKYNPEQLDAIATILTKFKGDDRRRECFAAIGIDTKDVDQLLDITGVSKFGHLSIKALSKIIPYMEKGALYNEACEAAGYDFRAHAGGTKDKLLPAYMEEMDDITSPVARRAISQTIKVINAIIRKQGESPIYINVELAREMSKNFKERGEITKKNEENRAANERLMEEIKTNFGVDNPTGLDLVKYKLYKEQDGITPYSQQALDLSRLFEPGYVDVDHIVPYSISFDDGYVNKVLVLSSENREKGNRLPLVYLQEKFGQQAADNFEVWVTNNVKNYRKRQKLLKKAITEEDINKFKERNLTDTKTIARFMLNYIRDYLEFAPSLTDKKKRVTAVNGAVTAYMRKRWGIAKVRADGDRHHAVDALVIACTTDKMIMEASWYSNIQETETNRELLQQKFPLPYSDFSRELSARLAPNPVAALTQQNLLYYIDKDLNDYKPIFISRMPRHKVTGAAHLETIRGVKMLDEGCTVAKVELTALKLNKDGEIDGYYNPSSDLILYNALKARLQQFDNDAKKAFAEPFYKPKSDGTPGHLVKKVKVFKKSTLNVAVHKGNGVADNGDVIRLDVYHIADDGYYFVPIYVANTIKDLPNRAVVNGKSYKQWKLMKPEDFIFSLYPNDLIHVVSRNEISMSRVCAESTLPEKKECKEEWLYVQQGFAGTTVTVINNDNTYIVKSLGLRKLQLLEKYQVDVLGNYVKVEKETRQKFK

[3] = system: T3, OMNI-94 (metagenomic, unknown); details: TXTL; PAM NNRRAYGN
T3 sequence: T2 sequence

[4] = system: T4, OMNI-138 (metagenomic, unknown); details: TXTL; PAM NNNNGTKA
T4 sequence: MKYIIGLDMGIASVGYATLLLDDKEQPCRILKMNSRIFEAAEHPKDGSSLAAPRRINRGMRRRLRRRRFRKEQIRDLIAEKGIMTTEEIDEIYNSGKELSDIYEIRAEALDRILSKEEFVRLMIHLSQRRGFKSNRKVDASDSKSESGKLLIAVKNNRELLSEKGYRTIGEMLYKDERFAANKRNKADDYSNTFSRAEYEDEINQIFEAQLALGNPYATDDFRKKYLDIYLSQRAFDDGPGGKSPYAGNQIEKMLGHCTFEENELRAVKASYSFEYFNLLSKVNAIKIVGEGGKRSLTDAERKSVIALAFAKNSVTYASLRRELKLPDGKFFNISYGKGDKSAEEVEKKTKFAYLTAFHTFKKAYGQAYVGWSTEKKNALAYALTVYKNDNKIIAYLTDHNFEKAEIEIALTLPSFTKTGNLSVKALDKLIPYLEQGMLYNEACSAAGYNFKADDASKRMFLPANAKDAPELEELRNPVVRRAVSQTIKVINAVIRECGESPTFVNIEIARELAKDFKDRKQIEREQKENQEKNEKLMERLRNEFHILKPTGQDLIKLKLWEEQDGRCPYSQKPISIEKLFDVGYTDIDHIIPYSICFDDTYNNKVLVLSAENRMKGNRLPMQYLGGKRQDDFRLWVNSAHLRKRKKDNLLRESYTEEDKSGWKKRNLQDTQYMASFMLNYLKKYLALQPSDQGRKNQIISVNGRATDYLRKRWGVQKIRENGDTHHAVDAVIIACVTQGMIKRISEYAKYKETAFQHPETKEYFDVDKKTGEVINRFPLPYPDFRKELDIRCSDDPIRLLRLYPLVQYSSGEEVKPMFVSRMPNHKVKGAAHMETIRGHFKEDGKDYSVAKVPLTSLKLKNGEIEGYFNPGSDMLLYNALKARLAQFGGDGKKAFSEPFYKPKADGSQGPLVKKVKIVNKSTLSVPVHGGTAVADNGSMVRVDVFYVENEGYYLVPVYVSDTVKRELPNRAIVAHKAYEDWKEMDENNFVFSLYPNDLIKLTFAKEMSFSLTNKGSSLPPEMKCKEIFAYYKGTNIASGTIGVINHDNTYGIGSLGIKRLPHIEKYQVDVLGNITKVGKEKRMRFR

“GGAAGAGCAGAGCCUUGGUCUCGUUUUAGUUCUCGGACGAAAGUCCGAGAAUCUAAGAUAAAGCUAUAUGCUGUGGGGUUGCGUAUCCCCUUAUCGAACGUACUAAGAUGAGUUUCGGCUCAUCUUUUUU / GGAAGAGCAGAGCCTTGGTCTCNNNNNNNN / NNNNNNNNGAGACCAAGGCTCTGCTCTTCC [T2 sgRNA 37 V1 ; T2 protospacer + 8N PAM library (pbPOS T2)]” showed an activity (1-depletion score) [1] of 0.97.

With “GGAAGAGCAGAGCCUUGGUCUCAUUUUAGUACCUGGAGAAAGAAAUUUCUUCAGACCUACUAAAACAAGGCUUUAUGCCGAAAGUUUUUUUGAUUUGAAUUGAAUGAGUUGAAAGAGGAUGCCGACGGGUGUCCUCUUUUUUU / GGAAGAGCAGAGCCTTGGTCTCNNNNNNNN / NNNNNNNNGAGACCAAGGCTCTGCTCTTCC [T2 sgRNA 6 V1 ; T2 protospacer + 8N PAM library (pbPOS T2)]” the activity (1-depletion score) [2] was 0.77.

“GGAAGAGCAGAGCCUUGGUCUCGUUGUAGCUCCCUGUUAAUGAAAACUAACAGGUUACUACAAUAAGGUCUUAGGACCGCAAAGCUCUAUCGCCCUACAUCCGUAGGGCGAUAUCUUUUUAUACAUUUUUU / GGAAGAGCAGAGCCTTGGTCTCNNNNNNNN / NNNNNNNNGAGACCAAGGCTCTGCTCTTCC [T2 sgRNA 5 V1 ; T2 protospacer + 8N PAM library (pbPOS T2)]” gave an activity (1-depletion score) [3] of 0.69.

In the case of “GGAAGAGCAGAGCCUUGGUCUCGUUGUAGUUCCCUAAUUAUGAAAACAAUUAGGUUACUAUGAUAAGGUAGUAUACCGCAAAGCUCUAACGCCUCAUCUUAAUGAUGGGGCGUUAUCUUUUUU / GGAAGAGCAGAGCCTTGGTCTCNNNNNNNN / NNNNNNNNGAGACCAAGGCTCTGCTCTTCC [T2 sgRNA 38 V1 ; T2 protospacer + 8N PAM library (pbPOS T2)]”, the activity (1-depletion score) [4] is reported as 0.97.

— patent US20240425885
